A word on the stoichiometry N: it is a count of units in the complex or per binding partner.

Where “and” joins values, the source holds several entries; their conditions need not be identical. Equal entries are not always repeated.

Experiment [1] addresses T1, His6-tagged human DISC1 C-region (residues 691-836) (human), Q9NRI5.
T1 chain: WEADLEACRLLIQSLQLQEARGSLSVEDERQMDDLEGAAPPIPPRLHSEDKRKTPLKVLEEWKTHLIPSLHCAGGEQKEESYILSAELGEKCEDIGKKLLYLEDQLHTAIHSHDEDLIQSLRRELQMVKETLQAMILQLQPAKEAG
Put plainly: dynamic light scattering; critical concentration of C-region monomers/oligomers in equilibrium with the fibril suspension, taken as the detection limit of the instrument; 1D crystallization model (KF = 1/[C]). As to conditions: remark: other sources report otherwise.

The target in experiment [2] is T1, His6-tagged human DISC1 C-region …. Description: ITC; no titration: heat flow of the spontaneous association of the protein solution monitored in the cell (iTC-200, 300 rpm); 10-50 µM at 37 °C, 10 µM at 20-60 °C; dH from the peak area normalised to the protein amount. As to conditions: remark: other sources report otherwise. (Isothermal titration calorimetry measures the heat released or taken up as one component is titrated into another.)

Experiment [3] has the same target. Put plainly: dynamic light scattering; His6-C-region, 10-90 µM at 37 °C; samples centrifuged at 21,000 x g before measurement. As to conditions: remark: other sources report otherwise.
Experiment [4] has the same target. Put plainly: negative-stain transmission electron microscopy; 10 µM protein on carbon-coated copper grids, 1% uranyl acetate; 2D classification and 3D reconstruction (RELION). As to conditions: remark: other sources report otherwise.
Experiment [5] concerns the target T2, MBP-His6-fused human DISC1 C-region (residues 691-836) (human), Q9NRI5.
T2 chain: T1 chain
Put plainly: dynamic light scattering; MBP-tagged C-region in solution at different temperatures (Fig. S1). Conditions: remark: other sources report otherwise.

Experiment [6] addresses T3, lissencephaly 1 (LIS1) (UniProt P43034 1-410).
T3 construct: lissencephaly 1 (LIS1); source: E. coli C43 (DE3), purified (Ni2+-NTA, Superdex 200 SEC)
T3 sequence (looked up): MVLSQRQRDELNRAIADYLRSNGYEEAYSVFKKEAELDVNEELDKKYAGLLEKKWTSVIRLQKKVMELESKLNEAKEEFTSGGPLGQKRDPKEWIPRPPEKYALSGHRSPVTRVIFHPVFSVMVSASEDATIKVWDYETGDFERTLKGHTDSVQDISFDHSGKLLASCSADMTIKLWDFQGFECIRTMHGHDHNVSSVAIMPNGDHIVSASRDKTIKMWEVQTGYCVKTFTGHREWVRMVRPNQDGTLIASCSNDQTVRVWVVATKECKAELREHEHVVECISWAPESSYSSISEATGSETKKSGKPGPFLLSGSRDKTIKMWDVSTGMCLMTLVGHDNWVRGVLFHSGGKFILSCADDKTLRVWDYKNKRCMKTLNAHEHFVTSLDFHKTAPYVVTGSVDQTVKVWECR
Put plainly: SPR; oligomeric/fibrillar C-region (His-C-region incubated at 4 °C for two weeks, MBP-C-region for two months) amine-coupled to a CM5 chip (250 RU); analytes 0.75-10 µM without regeneration; 25 °C, PBS pH 7.4; equilibrium responses fitted with Hill's equation; apparent affinities. Conditions: both partners purified. (In general: SPR reads the build-up and loss of mass on a sensor chip optically.)

Experiment [7] deals with T4, NDE-like 1 (NDEL1) (UniProt Q9GZM8 1-345). Described as above. As to conditions: both partners purified.
T4 sequence (Q9GZM8 whole entry): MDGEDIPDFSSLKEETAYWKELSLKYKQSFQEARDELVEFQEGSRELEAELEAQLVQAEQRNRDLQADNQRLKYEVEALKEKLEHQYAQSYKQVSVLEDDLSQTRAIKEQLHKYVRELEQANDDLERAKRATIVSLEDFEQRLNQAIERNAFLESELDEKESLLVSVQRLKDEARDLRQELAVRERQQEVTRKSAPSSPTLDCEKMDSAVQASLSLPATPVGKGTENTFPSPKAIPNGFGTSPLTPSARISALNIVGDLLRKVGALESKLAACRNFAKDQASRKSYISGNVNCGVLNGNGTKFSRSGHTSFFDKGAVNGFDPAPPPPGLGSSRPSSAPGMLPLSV
Experiment [8] addresses T3, lissencephaly 1 (LIS1). Description: SPR; freshly prepared MBP-C-region (representing the monomer) amine-coupled to a CM5 chip (250 RU); analytes 0.75-10 µM without regeneration; 25 °C, PBS pH 7.4 (20 mM Na-phosphate, 150 mM NaCl); equilibrium responses fitted with Hill's equation. As to conditions: both partners purified.
Experiment [9] addresses T4, NDE-like 1 (NDEL1). The description is as above. As to conditions: both partners purified.
Experiment [10] has as its target T4, NDE-like 1 (NDEL1). The experiment is described as above. As to conditions: both partners purified. This is another data set of the same source.

B1: His6-tagged human DISC1 C-region (residues 691-836), Q9NRI5 691-836 (domain or fragment)
chain: T1 chain
In the case of B1, the critical concentration (1/KF of fibril formation) in experiment [1] was 750 nM. Also, the dH in experiment [2] was -71.2 kcal/mol. In addition, the stoichiometry N is 4 in [3]; 4 and 5 and 6 in [4].

B2: MBP-His6-fused human DISC1 C-region (residues 691-836), Q9NRI5 691-836 (domain or fragment)
chain: T1 chain
For the molecule B2, the stoichiometry N in [5] is 4.

B3: His6-tagged human DISC1 C-region (residues 691-836) (domain or fragment, UniProt Q9NRI5 691-836, looked up)
chain: T1 chain
notes: disrupted in schizophrenia 1 (DISC1), human, C-region, residues 691-836 of full-length human DISC1; Vector pESPRIT002; Theoretical mass of the tagged protein 19.4 kDa; for SPR it was incubated at 4 °C for two weeks (oligomer/fibril); also called His6-C-region; His-C-region; source: E. coli BL21 (DE3) pLysE T1R, purified (Co2+-NTA, Superdex 200 SEC); not shown: His6, N-terminal, kept
Consider B3, for which the Kd in experiment [6] turned out to be 0.031 µM; in experiment [7], 13 µM.

B4: MBP-His6-fused human DISC1 C-region (residues 691-836) (domain or fragment, UniProt Q9NRI5 691-836, looked up)
chain: T1 chain
notes: disrupted in schizophrenia 1 (DISC1), human, C-region, residues 691-836 of full-length human DISC1; Cloned in pET-15b; Used freshly prepared to represent the monomer, and after two months at 4 °C as oligomer/fibril, in SPR; also called MBP-C-region; MBP-C region; source: E. coli (DE3) C43, purified (Co2+-NTA, amylose column); not shown: MBP, N-terminal, kept; His6, N-terminal, kept
Take B4: the Kd turned out to be 0.071 µM in [8]; 20 µM in experiment [9]; 0.031 µM in [6]; 14 µM in [7]; 28 µM in experiment [10].

The values are drawn from publication PMC8683410 (Translational Psychiatry, 2021).
